Assay results: patent US20260043041A1, “HSL PROTEIN, GENE, VECTOR, CELL, COMPOSITION AND USE THEREOF, AND METHOD FOR IMPROVING HERBICIDE RESISTANCE OF CROPS” (CENTRAL CHINA NORMAL UNIVERSITY, priority 2022, published 2026)

What was measured:
[1] = biological target: T1, rice OsHSL1 (SEQ ID NO: 1) mutant OsHSL1_L204F/F298L/I335A (Oryza sativa, UniProt A0A7G1K9G4, F298L/I335A/L204F); assay: Enzyme kinetic parameters with HPPD inhibitors as substrate (HPLC); format: biochemical
T1 construct: isolated enzyme, HPLC assay; I335A may be a misprint of I335F
T1 sequence (A0A7G1K9G4 1-350 L204F/F298L/I335A): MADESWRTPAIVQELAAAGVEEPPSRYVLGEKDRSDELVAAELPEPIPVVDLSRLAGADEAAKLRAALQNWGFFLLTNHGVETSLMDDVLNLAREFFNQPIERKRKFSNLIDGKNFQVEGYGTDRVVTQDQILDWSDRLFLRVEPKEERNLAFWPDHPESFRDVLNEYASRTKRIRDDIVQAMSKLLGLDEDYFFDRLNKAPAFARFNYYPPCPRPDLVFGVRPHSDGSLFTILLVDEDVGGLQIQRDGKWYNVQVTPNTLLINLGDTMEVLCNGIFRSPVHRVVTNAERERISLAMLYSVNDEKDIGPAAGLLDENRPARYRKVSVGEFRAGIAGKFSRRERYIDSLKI
From the text: (§1) High Performance Liquid Chromatography (HPLC) was used to test OsHIS1 wild-type protein (the amino acid sequence of OsHIS1 wild-type is shown as SEQ ID NO 2, and the corresponding nucleotide sequence is shown as SEQ ID NO 21), the enzyme kinetic parameters of OsHSL1 wild-type protein and some OsHSL1 mutant proteins with higher reactivity and HPPD inhibitors, and the specific results are shown in Table 9-Table 12. […] Each sample was replicated three times. • e.

[2] = biological target: T2, rice OsHSL1 (SEQ ID NO: 1) mutant OsHSL1_F140H/L204F/F298L/I335A (Oryza sativa, UniProt A0A7G1K9G4, F140H/F298L/I335A/L204F); assay: as above; format: biochemical; settings: compared with OsHSL1 wild type; close to the OsHIS1 wild type
T2 construct: isolated enzyme, HPLC assay
From the text: as §1

[3] = test system: Cc1c(C(=O)c2cnn(C)c2O)ccc(S(C)(=O)=O)c1C1=NOCC1; assay: as above; format: biochemical, rice; settings: other: pH 7.0, 30° C., about 20 min
From the text: as §1

[4] = test system: CS(=O)(=O)c1ccc(C(=O)C2C(=O)CCCC2=O)c([N+](=O)[O-])c1; assay: as above; format: biochemical, rice; settings: other: pH 7.0, 30° C., about 20 min
From the text: as §1

[5] = test system: Cc1ccccc1-n1c(=O)c2c(C)c(C(=O)C3=C(O)CCCC3=O)ccc2n(C)c1=O; assay: as above; format: biochemical, rice; settings: other: pH 7.0, 30° C., about 20 min
From the text: as §1

[6] = substrate: CS(=O)(=O)c1ccc(C(=O)C2C(=O)CCCC2=O)c([N+](=O)[O-])c1; assay: as above; format: biochemical, rice; settings: other: pH 7.0, 30° C., about 20 min; remark: listed apart in the source
From the text: as §1

[7] = substrate: Cc1ccccc1-n1c(=O)c2c(C)c(C(=O)C3=C(O)CCCC3=O)ccc2n(C)c1=O; assay: as above; format: biochemical, rice; settings: other: pH 7.0, 30° C., about 20 min; remark: listed apart in the source
From the text: as §1

[8] = Catalytic activity of HSL proteins on HPPD inhibitors (HPLC, substrate consumption); format: biochemical; settings: 30° C., 10 h, protein 0.5 mg/mL; for Catalytic efficiency (%) Compound A: substrate Compound A 50 μM; for Catalytic efficiency (%) benzobicyclon technical: substrate benzobicyclon technical 50 μM; for Catalytic efficiency (%) Mesotrione: substrate mesotrione 50 μM; for Catalytic efficiency (%) methyl-benquitrione: substrate methyl-benquitrione 50 μM; for Catalytic efficiency (%) pyraquinate technical: substrate pyraquinate technical 50 μM; for Catalytic efficiency (%) tefuryltrione: substrate tefuryltrione 50 μM; for Catalytic efficiency (%) tembotrione: substrate tembotrione 50 μM
Method: (§2) Each sample was replicated three times. • e.
(§3) Control: refers to the addition of inhibitors to the reaction system, but not the addition of enzymes, which is regarded as the substrate surplus when the inhibitor is not catalyzed.
(§4) Sample: in the enzyme reaction system, the same volume and the same concentration (50 μM) of the inhibitor was added, and the catalytic efficiency of the enzyme to the inhibitor was observed.
(§5) Catalytic efficiency=(1−(peak area of substrate in sample)/(peak area of substrate in control))×100%.

[9] = format: biochemical; settings: for Catalytic efficiency (%) topramezone: substrate topramezone 50 μM, 30° C., 10 h, protein 0.5 mg/mL; for Catalytic efficiency (%) 30 min / Catalytic efficiency (%) 60 min / Catalytic efficiency (%) 120 min / Catalytic efficiency (%) 300 min / Catalytic efficiency (%) 600 min: topramezone degradation; for Catalytic efficiency (%) 30 min: reaction time 30 min; for Catalytic efficiency (%) 60 min: reaction time 60 min; for Catalytic efficiency (%) 120 min: reaction time 120 min; for Catalytic efficiency (%) 300 min: reaction time 300 min; for Catalytic efficiency (%) 600 min: reaction time 600 min
Method: as §2, §3, §4, §5

[10] = Enzyme kinetic parameter study (HPLC, Michaelis-Menten fit); format: biochemical
From the text: as §1

T2 sequence (A0A7G1K9G4 entry or part of it F140H/L204F/F298L/I335A): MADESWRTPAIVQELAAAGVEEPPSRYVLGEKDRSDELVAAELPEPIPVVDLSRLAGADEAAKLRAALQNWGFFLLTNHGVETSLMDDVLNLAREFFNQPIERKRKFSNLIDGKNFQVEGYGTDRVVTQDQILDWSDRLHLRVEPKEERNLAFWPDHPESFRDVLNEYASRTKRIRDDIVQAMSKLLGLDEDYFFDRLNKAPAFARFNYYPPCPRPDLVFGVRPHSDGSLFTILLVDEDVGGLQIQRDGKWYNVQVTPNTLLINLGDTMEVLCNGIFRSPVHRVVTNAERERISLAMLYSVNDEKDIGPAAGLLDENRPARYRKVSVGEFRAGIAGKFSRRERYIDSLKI

In the case of `Cc1nn(C)c(O)c1C(=O)c1ccc2c(c1C)c(=O)n(-c1cccc(Cl)c1)c(=O)n2C` [pyraquinate technical, pyraquinate], the “affinity and catalytic efficiency (in words)” value ([1]; compared with OsHIS1 wild type and OsHSL1 wild type) is reported as “superior” and the Kcat ([1]; pH 7.0, 30° C., about 20 min) is reported as 0.00135 s⁻¹.

For `CS(=O)(=O)c1ccc(C(=O)C2=C(Sc3ccccc3)C3CCC(C3)C2=O)c(Cl)c1` (stereo not drawn) [benzobicyclon technical, benzobicyclon], the “affinity and catalytic efficiency (in words)” value [2] was “better affinity and catalytic efficiency”.

“rice OsHSL1 wild type, SEQ ID NO: 1 (Oryza sativa Japonica Group)” gave a Km [3] of 44.0732 µM and a kcat [3] of 0.0011 s⁻¹.

“rice OsHSL1 (SEQ ID NO: 1) mutant OsHSL1_F140H/L204F/F298L/I335A (Oryza sativa Japonica Group; F140H/F298L/I335A/L204F)” gave a Km [4] of 23.4659 µM, a kcat [4] of 0.0083 s⁻¹ and a Km [5] of 22.6001 µM. For the same molecule, the kcat [5] was 0.0106 s⁻¹.

For “rice OsHSL1 (SEQ ID NO: 1) mutant OsHSL1_I335F (Oryza sativa Japonica Group; I335F)”, the Km [3] was 48.4211 µM and the kcat [3] was 0.0057 s⁻¹.

For `CS(=O)(=O)c1ccc(C(=O)C2C(=O)CCCC2=O)c([N+](=O)[O-])c1` [mesotrione], the “affinity and catalytic efficiency (in words)” value [2] was “better affinity and catalytic efficiency”.

B1: rice OsHIS1 wild type, SEQ ID NO: 2 (Oryza sativa Japonica Group) (protein)
chain: MADESWRAPAIVQELAAAGVEEPPSRYLLREKDRSDVKLVAAELPEPLPVVDLSRLDGAEEATKLRVALQNWGFFLLTNHGVEASLMDSVMNLSREFFNQPIERKQKFSNLIDGKNFQIQGYGTDRVVTQDQILDWSDRLHLRVEPKEEQDLAFWPDHPESFRDVLNKYASGTKRIRDDIIQAMAKLLELDEDYFLDRLNEAPAFARFNYYPPCPRPDLVFGIRPHSDGTLLTILLVDKDVSGLQVQRDGKWSNVEATPHTLLINLGDTMEVMCNGIFRSPVHRVVTNAEKERISLAMLYSVNDEKDIEPAAGLLDENRPARYRKVSVEEFRAGIFGKFSRGERYIDSLRI
notes: isolated enzyme, HPLC substrate-consumption assay with Fe(II), ascorbate and 2-oxoglutarate
B1 showed a Km [6] of 5.5811 µM, a kcat [6] of 0.05957 s⁻¹ and a Km [7] of 16.2456 µM. For the same molecule, the kcat [7] was 0.0106 s⁻¹.

B2: rice OsHSL1 wild type, SEQ ID NO: 1 (Oryza sativa Japonica Group) (protein)
chain: MADESWRTPAIVQELAAAGVEEPPSRYVLGEKDRSDELVAAELPEPIPVVDLSRLAGADEAAKLRAALQNWGFFLLTNHGVETSLMDDVLNLAREFFNQPIERKRKFSNLIDGKNFQVEGYGTDRVVTQDQILDWSDRLFLRVEPKEERNLAFWPDHPESFRDVLNEYASRTKRIRDDIVQAMSKLLGLDEDYFFDRLNKAPALARFNYYPPCPRPDLVFGVRPHSDGSLFTILLVDEDVGGLQIQRDGKWYNVQVTPNTLLINLGDTMEVLCNGIFRSPVHRVVTNAERERISLAMFYSVNDEKDIGPAAGLLDENRPARYRKVSVGEFRAGIIGKFSRRERYIDSLKI
notes: as for B1
In the case of B2, the “Catalytic efficiency (%) Compound A” value [8] is reported as 0%, the “Catalytic efficiency (%) benzobicyclon technical” value [8] is reported as 46% and the “Catalytic efficiency (%) Mesotrione” value [8] is reported as 40%. For the same molecule, the “Catalytic efficiency (%) methyl-benquitrione” value [8] was 0%, the “Catalytic efficiency (%) pyraquinate technical” value [8] was 17% and the “Catalytic efficiency (%) tefuryltrione” value [8] was 100%. The “Catalytic efficiency (%) tembotrione” value [8] was 89%, the “Catalytic efficiency (%) topramezone” value [9] was 100% and the “Catalytic efficiency (%) 30 min” value [9] was 79%. The “Catalytic efficiency (%) 60 min” value [9] was 86%, the “Catalytic efficiency (%) 120 min” value [9] was 93% and the “Catalytic efficiency (%) 300 min” value [9] was 98%. For the same molecule, the “Catalytic efficiency (%) 600 min” value [9] was 100%, the Km [6] was 27.6770 µM and the kcat [6] was 0.0002 s⁻¹.

B3: OsHSL1_L204F/F298L/I335A: three-point mutant OsHSL1_L204F/F298L/I335A containing I335; not listed in Table 2 (protein)
chain: MADESWRTPAIVQELAAAGVEEPPSRYVLGEKDRSDELVAAELPEPIPVVDLSRLAGADEAAKLRAALQNWGFFLLTNHGVETSLMDDVLNLAREFFNQPIERKRKFSNLIDGKNFQVEGYGTDRVVTQDQILDWSDRLFLRVEPKEERNLAFWPDHPESFRDVLNEYASRTKRIRDDIVQAMSKLLGLDEDYFFDRLNKAPAFARFNYYPPCPRPDLVFGVRPHSDGSLFTILLVDEDVGGLQIQRDGKWYNVQVTPNTLLINLGDTMEVLCNGIFRSPVHRVVTNAERERISLAMLYSVNDEKDIGPAAGLLDENRPARYRKVSVGEFRAGIAGKFSRRERYIDSLKI
In the case of B3, the “affinity and catalytic efficiency to pyraquinate technical versus wild types (in words)” value ([10]; statement on Table 12) is reported as “superior to that of OsHIS1 wild type and OsHSL1 wild type”.

B4: OsHSL1_I335F: SEQ ID NO.1 with the isoleucine at site 335 mutated to phenylalanine (protein, listed as Oryza sativa)
chain: MADESWRTPAIVQELAAAGVEEPPSRYVLGEKDRSDELVAAELPEPIPVVDLSRLAGADEAAKLRAALQNWGFFLLTNHGVETSLMDDVLNLAREFFNQPIERKRKFSNLIDGKNFQVEGYGTDRVVTQDQILDWSDRLFLRVEPKEERNLAFWPDHPESFRDVLNEYASRTKRIRDDIVQAMSKLLGLDEDYFFDRLNKAPALARFNYYPPCPRPDLVFGVRPHSDGSLFTILLVDEDVGGLQIQRDGKWYNVQVTPNTLLINLGDTMEVLCNGIFRSPVHRVVTNAERERISLAMFYSVNDEKDIGPAAGLLDENRPARYRKVSVGEFRAGIFGKFSRRERYIDSLKI
With B4 the “Catalytic efficiency (%) Compound A” value [8] was 0%, the “Catalytic efficiency (%) benzobicyclon technical” value [8] was 44% and the “Catalytic efficiency (%) Mesotrione” value [8] was 15%. The “Catalytic efficiency (%) methyl-benquitrione” value [8] was 0%, the “Catalytic efficiency (%) pyraquinate technical” value [8] was 24% and the “Catalytic efficiency (%) tefuryltrione” value [8] was 98%. The “Catalytic efficiency (%) tembotrione” value [8] was 62%, the “degradation of topramezone (in words)” value [9] was “can completely degrade topramezone” and the “effect on topramezone degradation versus OsHSL1 wild type (in words)” value [9] was “significantly better effect on topramezone degredation than OsHSL1 wild type”. For the same molecule, the “Catalytic efficiency (%) topramezone” value [9] was 100%, the “Catalytic efficiency (%) 30 min” value [9] was 97% and the “Catalytic efficiency (%) 60 min” value [9] was 100%. The “Catalytic efficiency (%) 120 min” value [9] was 100%, the “Catalytic efficiency (%) 300 min” value [9] was 100% and the “Catalytic efficiency (%) 600 min” value [9] was 100%. For the same molecule, the “catalytic efficiency to topramezone versus wild type (in words)” value ([10]; statement on Table 11) was “obviously superior to that of OsHSL1 wild type”.
